Experimental data taken from US20020142429.

What was measured:
[1] = target: Dictyostelium myosin (myosin heavy chains), P08799
[2] = target: rabbit reticulocyte eEF-2, P55823

Chain of Dictyostelium myosin (myosin heavy chains), P08799 (P08799 whole entry): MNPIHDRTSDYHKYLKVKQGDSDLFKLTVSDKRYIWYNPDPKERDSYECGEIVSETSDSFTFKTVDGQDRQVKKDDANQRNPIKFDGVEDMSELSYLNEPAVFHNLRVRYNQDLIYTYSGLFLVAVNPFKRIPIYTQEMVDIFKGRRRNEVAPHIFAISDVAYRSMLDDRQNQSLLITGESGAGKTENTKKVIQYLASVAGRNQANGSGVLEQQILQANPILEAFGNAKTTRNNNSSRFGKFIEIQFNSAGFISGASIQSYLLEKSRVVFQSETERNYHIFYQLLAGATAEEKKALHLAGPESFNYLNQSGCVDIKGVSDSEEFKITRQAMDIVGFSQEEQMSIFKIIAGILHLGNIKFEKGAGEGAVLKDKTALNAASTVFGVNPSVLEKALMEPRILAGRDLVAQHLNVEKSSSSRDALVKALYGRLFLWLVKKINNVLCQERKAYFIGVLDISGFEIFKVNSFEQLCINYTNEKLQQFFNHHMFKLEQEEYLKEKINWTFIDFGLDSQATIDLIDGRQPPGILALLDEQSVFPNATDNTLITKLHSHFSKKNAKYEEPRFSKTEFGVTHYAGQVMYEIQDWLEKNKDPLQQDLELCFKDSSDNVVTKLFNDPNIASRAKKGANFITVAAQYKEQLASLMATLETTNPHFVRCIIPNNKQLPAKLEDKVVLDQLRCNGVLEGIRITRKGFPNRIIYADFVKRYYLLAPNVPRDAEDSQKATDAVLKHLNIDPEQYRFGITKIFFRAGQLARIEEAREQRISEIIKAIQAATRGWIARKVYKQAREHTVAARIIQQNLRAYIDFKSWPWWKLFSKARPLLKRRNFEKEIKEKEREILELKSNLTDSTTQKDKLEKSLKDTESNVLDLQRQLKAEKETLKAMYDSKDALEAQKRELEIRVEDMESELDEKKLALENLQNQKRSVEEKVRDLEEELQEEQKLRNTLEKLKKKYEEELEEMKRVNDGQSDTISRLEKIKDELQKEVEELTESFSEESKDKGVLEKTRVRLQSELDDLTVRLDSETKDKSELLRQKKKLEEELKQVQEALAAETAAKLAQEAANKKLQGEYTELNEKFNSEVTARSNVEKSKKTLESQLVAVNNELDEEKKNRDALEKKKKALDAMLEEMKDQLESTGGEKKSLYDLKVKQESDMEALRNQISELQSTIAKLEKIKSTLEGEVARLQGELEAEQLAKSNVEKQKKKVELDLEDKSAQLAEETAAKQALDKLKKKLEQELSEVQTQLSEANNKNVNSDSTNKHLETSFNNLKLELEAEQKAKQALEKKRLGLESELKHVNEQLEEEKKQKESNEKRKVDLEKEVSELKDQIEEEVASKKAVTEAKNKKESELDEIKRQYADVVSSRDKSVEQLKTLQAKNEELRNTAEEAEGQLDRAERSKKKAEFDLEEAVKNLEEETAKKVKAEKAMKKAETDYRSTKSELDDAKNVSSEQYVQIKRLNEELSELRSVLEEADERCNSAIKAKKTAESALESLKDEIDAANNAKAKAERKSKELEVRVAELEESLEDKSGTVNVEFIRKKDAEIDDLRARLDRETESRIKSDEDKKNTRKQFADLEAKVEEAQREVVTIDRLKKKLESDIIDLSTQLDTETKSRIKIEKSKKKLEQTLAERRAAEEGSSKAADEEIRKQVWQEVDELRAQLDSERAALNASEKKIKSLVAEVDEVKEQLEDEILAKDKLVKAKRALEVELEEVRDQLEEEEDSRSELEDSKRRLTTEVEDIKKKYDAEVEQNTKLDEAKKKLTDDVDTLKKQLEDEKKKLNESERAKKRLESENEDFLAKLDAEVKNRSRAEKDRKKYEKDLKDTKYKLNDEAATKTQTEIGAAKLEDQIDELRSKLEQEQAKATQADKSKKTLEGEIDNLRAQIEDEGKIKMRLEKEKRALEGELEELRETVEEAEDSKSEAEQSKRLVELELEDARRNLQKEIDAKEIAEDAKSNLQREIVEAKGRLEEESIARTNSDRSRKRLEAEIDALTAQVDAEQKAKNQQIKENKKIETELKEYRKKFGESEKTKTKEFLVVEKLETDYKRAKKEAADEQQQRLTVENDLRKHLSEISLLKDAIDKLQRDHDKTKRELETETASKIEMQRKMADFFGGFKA

B1: rabbit reticulocyte eEF-2 kinase (protein)
chain: ADEDLIFRLEGLGGHQSSQTGHDGDSDADSDEEEGYFICPITDDPQSNQNVNSKINNYYSNLTKSERYGSSGSPASSFHFKEAWKHAIEKAKHMPDPWAEFHLEDIATECATRHRYNAVTGEWLQDEVLIKMASQPFGRGAMRECFRTKKLSNFLHAQQWKGASNYVAKRYIESVDRDVYFEDVRLQMEAKLWGEEYNRHKPPKQVDIMQMCIIELTERPGKPLFHLEHYIEGKYIKYNSNSGFVRDDNIRLTPQAFSHFTFERSGHQLIVVDIQGVGDLYTDPQIHTETGTDFGDGNLGVRGMALFFYSHACNRICKSMGLAPFDLSPREQDAVNQNTKLLQSAKTILRGTEEKCGSPRVRTLSGSRPPLLLRLSENSGDENMSDVTFDSLPSSPSSATPHSQKLDHLHWPVFSDLDNMAAREQDHLDNQRDSENSGDSGYPSEKRSELDDPEPREHGHSNGNRRCESDEDSLGSSGRVCVEKWNLLNPSRLHLPRASAVALEVQRLNALDLERKIGKSVLGKVHLAMVRYHEGGRFCDRDEEWDRESAVFHLEHAADLGELEAIVGLGLMYSQLPHHILADVSLKDTKENKTKGFDYLLKAAEAGDRQSMILVARAFDTGQNLSPERSRDWQEALHWYNSALEMTDCDEGGEYDGVQDEPRYTLLAREAEMLFTGGCGLDKDPQRSGDLYTQAAEAAMEAMKGRLANQYYQKAEEAWAQMEE
phosphorylation assay (substrate specificity), 10 min [1]: rabbit eEF-2 kinase cannot use myosin heavy chains as a substrate
phosphorylation assay (substrate specificity), 10 min [2]: each of these kinases is specific for their respective substrates

B2: human eEF-2 kinase glutathione S-transferase fusion protein (protein)
chain: MADEDLIFRLEGVDGGQSPRAGHDGDSDGDSDDEEGYFICPITDDPSSNQNVNSKVNKYYSNLTKSERYSSSGSPANSFHFKEAWKHAIQKAKHMPDPWAEFHLEDIATERATRHRYNAVTGEWLDDEVLIKMASQPFGRGAMRECFRTKKLSNFLHAQQWKGASNYVAKRYIEPVDRDVYFEDVRLQMEAKLWGEEYNRHKPPKQVDIMQMCIIELKDRPGKPLFHLEHYIEGKYIKYNSNSGFVRDDNIRLTPQAFSHFTFERSGHQLIVVDIQGVGDLYTDPQIHTETGTDFGDGNLGVRGMALFFYSHACNRICESMGLAPFDLSPRERDAVNQNTKLLQSAKTILRGTEEKCGSPQVRTLSGSRPPLLRPLSENSGDENMSDVTFDSLPSSPSSATPHSQKLDHLHWPVFSDLDNMASRDHDHLDNHRESENSGDSGYPSEKRGELDDPEPREHGHSYSNRKYESDEDSLGSSGRVCVEKWNLLNSSRLHLPRASAVALEVQRLNALDLEKKIGKSILGKVHLAMVRYHEGGRFCEKGEEWDQESAVFHLEHAANLGELEAIVGLGLMYSQLPHHILADVSLKETEENKTKGFDYLLKAAEAGDRQSMILVARAFDSGQNLSPDRCQDWLEALHWYNTALEMTDCDEGGEYDGMQDEPRYMMLAREAEMLFTGGYGLEKDPQRSGDLYTQAAEAAMEAMKGRLANQYYQKAEEAWAQMEE
phosphorylation of eEF-2 and autophosphorylation, dependence on calmodulin (calmodulin): the ability of the recombinant enzyme to phosphorylate eEF-2 and to undergo autophosphorylation are strictly calmodulin-dependent (data not shown)
ability to phosphorylate eEF-2 [2]: All of the fusion eEF-2 kinase preparations were able to efficiently phosphorylate eEF-2 (data not shown)
phosphorylation of eEF-2 [2]: the ability of the recombinant enzyme to phosphorylate eEF-2 and to undergo autophosphorylation are strictly calmodulin-dependent (data not shown)

B3: human eEF-2 kinase thioredoxin fusion protein (protein)
chain: B2 chain
ability to phosphorylate eEF-2 [2]: All of the fusion eEF-2 kinase preparations were able to efficiently phosphorylate eEF-2 (data not shown)

B4: recombinant human eEF-2 kinase (expressed in a coupled transcription/translation system) (protein)
chain: B2 chain
eEF-2 kinase activity in the presence and absence of Ca2+ and calmodulin (calmodulin): the recombinant human eEF-2 kinase activity was strictly Ca^2+/calmodulin-dependant

B5: human eEF-2 kinase 6xHis fusion protein (protein)
chain: B2 chain
ability to phosphorylate eEF-2 [2]: All of the fusion eEF-2 kinase preparations were able to efficiently phosphorylate eEF-2 (data not shown)

B6: myosin heavy chain kinase A (MHCK A) from Dictyostelium (protein)
chain: MFNIKKRKESITGIPPINVNSPQSVPLSGTLQSPLITPNSPNFVSRQCPFKKFGCSSFLVSKAEFDNHLKDDAQFHLQLAVEKFDHQFDLHTQLMAHFTEQMEDQLEKTMKVVRNHTDSLGGNVQTKLDEGIEKCMAFAKKVEQQQQQLAKRLITQQIQEKKSTSSPLVKGGISGGGGSGGDDSFDGANISSMSTSKQELQQELQSLSIKMKKELTELSDELSQKLERSTGNIDIKIKRIEGEVNEKIDKRQLVSTIDDSIGKKTDSIGYTLESSIIKKVEEKEKKKSEQNQLLFDSKIESLKDKIKIIETQQLDTSSEVRKLKLESTSSGNLMAGLNGTSGRPSSSSHFIPSSVSAAANNINKNEIMEEVKKVEEKLQKKIREEIDNTKSELSKVERSVKDNRSEIEGLEKDCKNQFDKQDNKIKQVEDDLKKSDSLLLLMQNNLKKYNEFVDRERDRESERLKLQDSIKRLEQNQKKIEAEIQEGNEQVERVLREEASISPISSVPKSPITTKRSSIILNSPPMTSQQSSPKIQDLLSSSGSSSVSGINISSETGEMGILWEFDPIINKWIRLSMKLKVERKPFAEGALREAYHTVSLGVGTDENYPLGTTTKLFPPIEMISPISKNNEAMTQLKNGTKFVLKLYKKEAEQQASRELYFEDVKMQMVCRDWGNKFNQKKPPKKIEFLMSWVVELIDRSPSSNGQPILCSIEPLLVGEFKKNNSNYGAVLTNRSTPQAFSHFTYELSNKQMIVVDIQGVDDLYTDPQIHTPDGKGFGLGNLGKAGINKFITTHKCNAVCALLDLDVKLGGVLSGNNKKQLQQGTMVMPDILPELMPSDNTIKVGAKQLPKAEFSKKDLKCVSTIQSFRERVNSIAFFDNQKLLCAGYGDGTYRVFDVNDNWKCLYTVNGHRKSIESIACNSNYIFTSSPDNTIKVHIIRSGNTKCIETLVGHTGEVNCVVANEKYLFSCSYDKTIKVWDLSTFKEIKSFEGVHTKYIKTLALSGRYLFSGGNDQIIYVWDTETLSMLFNMQGHEDWVLSLHCTASYLFSTSKDNVIKIWDLSNFSCIDTLKGHWNSVSSCVVKDRYLYSGSEDNSIKVWDLDTLECVYTIPKSHSLGVKCLMVFNNQIISAAFDGSIKVWEWQSK
phosphorylation assay (substrate specificity), 10 min [1]: each of these kinases is specific for their respective substrates
phosphorylation assay (substrate specificity), 10 min [2]: MHCK A cannot phosphorylate eEF-2

B7: recombinant C. elegans eEF-2 kinase (translation products of the mixture of Cefk-1 and Cefk-2) (protein)
chain: MTIDTTNESDNSPTNSPGLEASARTFSLNASKMVRITDDYADEVFIEQNDVVIEKPRMDPLHVRKLMETWRKAARRARTNYIDPWDEFNIHEYPVQRAKRYRYSAIRKQWTEDIVDVRLHPDSFARGAMRECYRLKKCSKHGTSQDWSSNYVAKRYICQVDRRVLFDDVRLQMDAKLWAEEYNRYNPPKKIDIVQMCVIEMIDVKGSPLYHLEHFIEGKYIKYNSNSGFVSNAARLTPQAFSHFTFERSGHQMMVVDIQGVGDLYTDPQIHTVVGTDYGDGNLGTRGMALFFHSHRCNDICETMDLSNFELSPPEIEATEVAMEVAAKQKKSCIVPPTVFEARRNRISSECVHVEHGISMDQLRKRKTLNQSSTDLSAKSHNEDCVCPECIPVVEQLCEPCSEDEEDEEEDYPRSEKSGNSQKSRRSRMSISTRSSGDESASRPRKCGFVDLNSLRQRHDSFRSSVGTYSMNSSRQTRDTEKDEFWKVLRKQSVPANILSLQLQQMAANLENDEDVPQVTGHQFSVLGQIHIDLSRYHELGRFVEVDSEHKEMLEGSENDARVPIKYDKQSAIFHLDIARKCGILEAVLTSAHIVLGLPHELLKEVTVDDLFPNGFGEQENGIRADKGQKPCDLEEFGSDLMEIAAEMGDKGAMLYMAHAYETGQHLGPNRRTDYKKSIDWYQRVVGFQEEEELDSDCGKTTFSSFAPLTRHEILAKMAEMYKEGGYGLNQDFERAYGLFNEAAEAAMEAMNGKLANKYYEKAEMCGE
eEF-2 phosphorylation activity in the presence and absence of Ca2+ and calmodulin (calmodulin): The eEF-2 phosphorylation activity of the recombinant protein is Ca^2+/calmodulin-dependant
eEF-2 kinase activity: phosphorylation of eEF-2 with [gamma-32P]ATP, SDS/PAGE and autoradiography [2]: The translation products of the mixture of Cefk-1 and Cefk-2 are able to phosphorylate eEF-2
